Experimental findings from patent US20030219457A1 are described below.

In experiment [1] the target is Crotalus durissus terrificus venom. As to the kind of experiment: ELISA, C.d.t. venom-coated wells; dilution 1:5.
Experiment [2] shares this target. Nature of the experiment: ELISA, C.d.t. venom-coated wells; dilution 1:25. For orientation: An ELISA detects its analyte on a solid surface through an enzyme-linked reagent.
Experiment [3] shares this target. Nature of the experiment: ELISA, C.d.t. venom-coated wells; dilution 1:125.
Experiment [4] shares this target. As to the kind of experiment: ELISA, C.d.t. venom-coated wells; dilution 1:625.
The target is the same in experiment [5]. As to the kind of experiment: ELISA, C.d.t. venom-coated wells; dilution 1:3125.
The target is the same in experiment [6]. As to the kind of experiment: ELISA, C.d.t. venom-coated wells; dilution 1:62,500.
Experiment [7] has the same target. Nature of the experiment: ELISA, C.d.t. venom-coated wells; dilution 1:312,500.
For experiment [8] the target is unchanged. As to the kind of experiment: ELISA, wells coated with 5 µg/ml C.d.t. venom; undiluted.
Experiment [9] shares this target. Nature of the experiment: ELISA, wells coated with 5 µg/ml C.d.t. venom; dilution 1:5.
The target is the same in experiment [10]. As to the kind of experiment: ELISA, wells coated with 5 µg/ml C.d.t. venom; dilution 1:25.
The target is the same in experiment [11]. Nature of the experiment: ELISA, wells coated with 5 µg/ml C.d.t. venom; dilution 1:125.
The target is the same in experiment [12]. As to the kind of experiment: ELISA, wells coated with 5 µg/ml C.d.t. venom; dilution 1:625.
Experiment [13] shares this target. As to the kind of experiment: ELISA, wells coated with 5 µg/ml C.d.t. venom; dilution 1:3125.

As for preimmune IgY (antibody), the absorbance (ELISA as in Example 4) in [1] is less than 0 OD; in experiment [2], 0.016 OD; in [3], less than 0 OD; in [4], less than 0 OD; in [5], less than 0 OD; in experiment [8], 0.003 OD. The absorbance (ELISA as in Example 4) in experiment [9] is less than 0 OD; in experiment [10] it was 0 OD; in [11], 0.003 OD; in experiment [12] it was 0 OD; in experiment [13] it was 0.002 OD. In addition, the results for the absorbance (412 nm filter) in experiment [6] and in experiment [7] were 0.001 OD and 0.01 OD, respectively.
